These results are taken from patent publication US20080300206.

The test system of the data set is recombinant wild-type human alpha-synuclein.

Turning to casein kinase II (CKII), the “S129 phosphorylation in vitro, normalised by activity units” value is reported as “CKII was not detectable”; the “S129 phosphorylation, immunoblot (11A5), kinase:AS 1:200 molar” value was “Prominent signals came from GRK6, CKI, CKII and PLK2”.

With casein kinase I (CKI), the “S87 phosphorylation, immunoblot (ELADW-110)” value is “A signal was detected only with CKI phosphorylation”; the “S129 phosphorylation in vitro, normalised by activity units” value is “CKI gave a modest signal”; the “S129 phosphorylation, immunoblot (11A5), kinase:AS 1:200 molar” value was “Prominent signals came from GRK6, CKI, CKII and PLK2”; the “S129 phosphorylation, immunoblot (11A5), rank of signal” value is given as “CKI>GRK6>PLK2>GRK4>GRK5>GRK2”. For the same substance, the “phospho ser-129 level in vitro, normalised for molarity” value is “roughly equivalent levels of phospho ser-129 between CKI, GRK6 and PLK2”.
